Article PMC10575957
Values belong to the substance of their own block, whether it stands above or below them.

Assays:
Assay in all cases: cryo-EM structure; portal-tail complex of the native P-SCSP1u virion, symmetry-mismatch reconstruction, C6 symmetry, 3.8 Å; virions in SM buffer
[1] = target: P-SCSP1u adaptor protein (gp22) (cyanophage P-SCSP1u)
[2] = target: P-SCSP1u fiber protein (gp28) (cyanophage P-SCSP1u)
[3] = target: P-SCSP1u nozzle protein (gp23) (cyanophage P-SCSP1u)
[4] = target: P-SCSP1u portal protein (gp16) (cyanophage P-SCSP1u)

- stoichiometry N [1]: 12
Substance: P-SCSP1u adaptor protein (gp22) (natural protein)

- stoichiometry N [2]: 3
Substance: P-SCSP1u fiber protein (gp28) (natural protein)

- stoichiometry N [3]: 6
Substance: P-SCSP1u nozzle protein (gp23) (natural protein)

- stoichiometry N [4]: 12
Substance: P-SCSP1u portal protein (gp16) (natural protein)
